Test results as given in article PMC3270550.

Biological target: HIV-1 envelope glycoprotein gp120 (UniProt P04578)
Test: binding assay (method not named in legend)
Details: read off a plot; for other: relative affinity (hCD4-M = 1): parent: est. 0.63

“hCD4-M, human CD4 mimetic peptide (residues 22-64), N-terminal Cys form F43A; R58A; R59A” showed a ratio to parent (parent: 1) of 0.24.

“mCD4-M, murine CD4 mimetic peptide (residues 22-66) I23C; E65C” gave an other: relative affinity (hCD4-M = 1) of 4.

“mCD4-M, murine CD4 mimetic peptide (residues 22-66) V44A; K60A; K61A” gave an other: relative affinity (hCD4-M = 1) of 0.14.
